B1: Lag3-Myc, full-length (FL), in HEK293FT cells [not stated] / human FLAG-APLP1, full length [human] (parent complex)
chain 1: GPGKELPVVWAQEGAPVHLPCSLKSPNLDPNFLRRGGVIWQHQPDSGQPTPIPALDLHQGMPSPRQPAPGRYTVLSVAPGGLRSGRQPLHPHVQLEERGLQRGDFSLWLRPALRTDAGEYHATVRLPNRALSCSLRLRVGQASMIASPSGVLKLSDWVLLNCSFSRPDRPVSVHWFQGQNRVPVYNSPRHFLAETFLLLPQVSPLDSGTWGCVLTYRDGFNVSITYNLKVLGLEPVAPLTVYAAEGSRVELPCHLPPGVGTPSLLIAKWTPPGGGPELPVAGKSGNFTLHLEAVGLAQAGTYTCSIHLQGQQLNATVTLAVITVTPKSFGLPGSRGKLLCEVTPASGKERFVWRPLNNLSRSCPGPVLEIQEARLLAERWQCQLYEGQRLLGATVYAAESSSGAHSARRISGDLKGGHLVLVLILGALSLFLLVAGAFGFHWWRKQLLLRRFSALEHGIQPFPAQRKIEELERELETEMGQEPEPEPEPQLEPEPRQL
chain 2: SLAGGSPGAAEAPGSAQVAGLCGRLTLHRDLRTGRWEPDPQRSRRCLRDPQRVLEYCRQMYPELQIARVEQATQAIPMERWCGGSRSGSCAHPHHQVVPFRCLPGEFVSEALLVPEGCRFLHQERMDQCESSTRRHQEAQEACSSQGLILHGSGMLLPCGSDRFRGVEYVCCPPPGTPDPSGTAVGDPSTRSWPPGSRVEGAEDEEEEESFPQPVDDYFVEPPQAEEEEETVPPPSSHTLAVVGKVTPTPRPTDGVDIYFGMPGEISEHEGFLRAKMDLEERRMRQINEVMREWAMADNQSKNLPKADRQALNEHFQSILQTLEEQVSGERQRLVETHATRVIALINDQRRAALEGFLAALQADPPQAERVLLALRRYLRAEQKEQRHTLRHYQHVAAVDPEKAQQMRFQVHTHLQVIEERVNQSLGLLDQNPHLAQELRPQIQELLHSEHLGPSELEAPAPGGSSEDKGGLQPPDSKDDTPMTLPKGSTEQDAASPEKEKMNPLEQYERKVNASVPRGFPFHSSEIQRDELAPAGTGVSREAVSGLLIMGAGGGSLIVLSMLLLRRKKPYGAISHGVVEVDPMLTLEEQQLRELQRHGYENPTYRFLEERP

Variants of: B1
Experiment: co-IP (IP: FLAG, blot Myc-Lag3), band intensity quantified; read off a plot

Row | response | Variant
1 | ~20 AU | chain 2 L25A, chain 2 T26A, chain 2 H28A, chain 2 D30A, chain 2 C46A, chain 2 L47A, chain 2 Q71A, chain 2 T73A, chain 2 I76A
